The sequences below were run on Escherichia coli TOP10 (assay: shrunken log2 fold change of peptide-encoding DNA abundance (4.5 h post-induction vs induction); higher = less antimicrobial activity (less host growth inhibition)). Details: time post-induction: 4.5 h; library: site-saturation at positions 5, 18, 19, 20.
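Note: peptides expressed intracellularly from a pBAD plasmid library in pooled LB shake-flask culture, induced with 0.3% L-arabinose, DNA abundance read by NGS, three biological replicates, DESeq2 with apeglm shrinkage.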

Row | Sequence | shrunken log2 fold change
1 | RRIRWRPPRLPRPRPRPPTDPRP | 0.415
2 | RRIRWRPPRLPRPRPRPPYKPRP | -0.249
3 | RRIRWRPPRLPRPRPRPPYMPRP | -0.16
4 | RRIRWRPPRLPRPRPRPPYQPRP | -0.172
5 | RRIRWRPPRLPRPRPRPPYTPRP | -0.137
6 | RRIRWRPPRLPRPRPRPQCHPRP | -0.13
7 | RRIRWRPPRLPRPRPRPQCWPRP | 0.0793
8 | RRIRWRPPRLPRPRPRPQDDPRP | 0.0379
9 | RRIRWRPPRLPRPRPRPQEGPRP | -0.00127
10 | RRIRWRPPRLPRPRPRPQEIPRP | -0.0137
11 | RRIRWRPPRLPRPRPRPQEVPRP | -0.0144
12 | RRIRWRPPRLPRPRPRPQFYPRP | -0.492
13 | RRIRWRPPRLPRPRPRPQGHPRP | 0.0837
14 | RRIRWRPPRLPRPRPRPQGSPRP | -0.00843
15 | RRIRWRPPRLPRPRPRPQHKPRP | -0.0725
16 | RRIRWRPPRLPRPRPRPQIWPRP | 0.0603
17 | RRIRWRPPRLPRPRPRPQLRPRP | 0.0178
18 | RRIRWRPPRLPRPRPRPQMEPRP | 0.0344
19 | RRIRWRPPRLPRPRPRPQQCPRP | 0.112
20 | RRIRWRPPRLPRPRPRPQRMPRP | 0.0753
21 | RRIRWRPPRLPRPRPRPQSPPRP | 0.0211
22 | RRIRWRPPRLPRPRPRPQSQPRP | 0.00151

Row | Sequence | shrunken log2 fold change
23 | RRIRWRPPRLPRPRPRPQTWPRP | 0.223
24 | RRIRWRPPRLPRPRPRPRCNPRP | 0.0644
25 | RRIRWRPPRLPRPRPRPRCRPRP | 0.371
26 | RRIRWRPPRLPRPRPRPRDCPRP | 0.226
27 | RRIRWRPPRLPRPRPRPRFHPRP | -0.293
28 | RRIRWRPPRLPRPRPRPRGMPRP | 0.313
29 | RRIRWRPPRLPRPRPRPRGQPRP | 0.302
30 | RRIRWRPPRLPRPRPRPRHFPRP | 0.223
31 | RRIRWRPPRLPRPRPRPRIGPRP | 0.138
32 | RRIRWRPPRLPRPRPRPRIIPRP | 0.136
33 | RRIRWRPPRLPRPRPRPRIQPRP | 0.273
34 | RRIRWRPPRLPRPRPRPRLGPRP | 0.252
35 | RRIRWRPPRLPRPRPRPRLIPRP | 0.55
36 | RRIRWRPPRLPRPRPRPRMMPRP | 0.0684
37 | RRIRWRPPRLPRPRPRPRSCPRP | 0.083
38 | RRIRWRPPRLPRPRPRPRWAPRP | 0.662
39 | RRIRWRPPRLPRPRPRPSCGPRP | 0.0847
40 | RRIRWRPPRLPRPRPRPSDRPRP | -0.0684
41 | RRIRWRPPRLPRPRPRPSGTPRP | 0.0142
42 | RRIRWRPPRLPRPRPRPSHSPRP | -0.0913
43 | RRIRWRPPRLPRPRPRPSKDPRP | -0.412
44 | RRIRWRPPRLPRPRPRPSKKPRP | 0.0769

Row | Sequence | shrunken log2 fold change
45 | RRIRWRPPRLPRPRPRPSKMPRP | -0.0978
46 | RRIRWRPPRLPRPRPRPSLCPRP | 0.384
47 | RRIRWRPPRLPRPRPRPSMHPRP | -0.0863
48 | RRIRWRPPRLPRPRPRPSNFPRP | -0.391
49 | RRIRWRPPRLPRPRPRPSNMPRP | -0.923
50 | RRIRWRPPRLPRPRPRPSPLPRP | -0.26
51 | RRIRWRPPRLPRPRPRPSQDPRP | 0.22
52 | RRIRWRPPRLPRPRPRPSRFPRP | -0.0148
53 | RRIRWRPPRLPRPRPRPSSQPRP | -0.317
54 | RRIRWRPPRLPRPRPRPSTRPRP | 0.00128
55 | RRIRWRPPRLPRPRPRPSVIPRP | -0.272
56 | RRIRWRPPRLPRPRPRPSWPPRP | 0.0582
57 | RRIRWRPPRLPRPRPRPSYVPRP | -0.651
58 | RRIRWRPPRLPRPRPRPTAQPRP | 0.894
59 | RRIRWRPPRLPRPRPRPTFAPRP | 0.327
60 | RRIRWRPPRLPRPRPRPTGTPRP | 0.288
61 | RRIRWRPPRLPRPRPRPTHGPRP | -0.0242
62 | RRIRWRPPRLPRPRPRPTHVPRP | 0.316
63 | RRIRWRPPRLPRPRPRPTHYPRP | 0.0892
64 | RRIRWRPPRLPRPRPRPTIEPRP | 0.145
65 | RRIRWRPPRLPRPRPRPTLSPRP | 0.3
66 | RRIRWRPPRLPRPRPRPTNGPRP | -0.134

Row | Sequence | shrunken log2 fold change
67 | RRIRWRPPRLPRPRPRPTNKPRP | -0.195
68 | RRIRWRPPRLPRPRPRPTPHPRP | 0.427
69 | RRIRWRPPRLPRPRPRPTPTPRP | 0.22
70 | RRIRWRPPRLPRPRPRPTPWPRP | 0.48
71 | RRIRWRPPRLPRPRPRPTQRPRP | 0.133
72 | RRIRWRPPRLPRPRPRPTRAPRP | 0.909
73 | RRIRWRPPRLPRPRPRPTRYPRP | -0.104
74 | RRIRWRPPRLPRPRPRPTSMPRP | -0.0665
75 | RRIRWRPPRLPRPRPRPTTPPRP | 0.642
76 | RRIRWRPPRLPRPRPRPTWCPRP | 0.242
77 | RRIRWRPPRLPRPRPRPTWDPRP | 0.395
78 | RRIRWRPPRLPRPRPRPTYFPRP | -0.359
79 | RRIRWRPPRLPRPRPRPVANPRP | 0.0636
80 | RRIRWRPPRLPRPRPRPVCSPRP | 0.0102
81 | RRIRWRPPRLPRPRPRPVECPRP | 0.194
82 | RRIRWRPPRLPRPRPRPVGRPRP | 0.0962
83 | RRIRWRPPRLPRPRPRPVGVPRP | 0.297
84 | RRIRWRPPRLPRPRPRPVHFPRP | -0.0407
85 | RRIRWRPPRLPRPRPRPVIPPRP | -0.0775
86 | RRIRWRPPRLPRPRPRPVKQPRP | -0.092
87 | RRIRWRPPRLPRPRPRPVLCPRP | 0.341
88 | RRIRWRPPRLPRPRPRPVLMPRP | -0.0411

Row | Sequence | shrunken log2 fold change
89 | RRIRWRPPRLPRPRPRPVLSPRP | 0.415
90 | RRIRWRPPRLPRPRPRPVMRPRP | 0.0188
91 | RRIRWRPPRLPRPRPRPVNMPRP | -0.101
92 | RRIRWRPPRLPRPRPRPVPFPRP | 0.122
93 | RRIRWRPPRLPRPRPRPVPHPRP | 0.271
94 | RRIRWRPPRLPRPRPRPVQKPRP | 0.0836
95 | RRIRWRPPRLPRPRPRPVRVPRP | 0.214
96 | RRIRWRPPRLPRPRPRPVTQPRP | -0.0775
97 | RRIRWRPPRLPRPRPRPVVFPRP | 0.0685
98 | RRIRWRPPRLPRPRPRPVVMPRP | -0.0601
99 | RRIRWRPPRLPRPRPRPVVVPRP | 0.281
100 | RRIRWRPPRLPRPRPRPVWAPRP | 0.263
101 | RRIRWRPPRLPRPRPRPVYQPRP | -0.196
102 | RRIRWRPPRLPRPRPRPVYYPRP | -0.412
103 | RRIRWRPPRLPRPRPRPWAKPRP | 0.279
104 | RRIRWRPPRLPRPRPRPWCCPRP | -0.065
105 | RRIRWRPPRLPRPRPRPWCQPRP | 0.121
106 | RRIRWRPPRLPRPRPRPWCTPRP | 0.118
107 | RRIRWRPPRLPRPRPRPWCYPRP | -0.475
108 | RRIRWRPPRLPRPRPRPWDEPRP | -0.106
109 | RRIRWRPPRLPRPRPRPWDHPRP | -0.0185

From the supplement of paper PMC9112550, “Optimization of the antimicrobial peptide Bac7 by deep mutational scanning” (BMC Biology, 2022)
